Measured values: patent US20240327535A1 (EISAI R AND D MANAGEMENT, published 2024)
Read-outs that look alike come from different tables or passages of the source.

Experiments:
Assay in all cases: Octet BLI; Fab 200 nM
[1] = biological target: T1, extracellular domain of human BCMA (human, UniProt Q02223 1-54)
T1 construct: amine-linked to Octet AR2G tips; also called hsBCMA; BCMA (human)
T1 sequence: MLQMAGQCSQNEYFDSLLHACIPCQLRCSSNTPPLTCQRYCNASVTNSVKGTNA

[2] = biological target: T2, extracellular domain of rhesus monkey BCMA (rhesus monkey, UniProt F7FFA0 1-53)
T2 construct: extracellular domain; also called RhBCMA
T2 sequence (F7FFA0 entry or part of it): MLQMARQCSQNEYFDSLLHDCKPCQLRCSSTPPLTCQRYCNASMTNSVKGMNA

[3] = biological target: T1, extracellular domain of human BCMA; remark: listed apart in the source
[4] = biological target: T2, extracellular domain of rhesus monkey …; remark: listed apart in the source

B1: AB200-R1a-Fab(hCDR2) (Fab, V domains shown)
VH: QVQLVQSGAEVKKPGSSVKVSCKASGGTFSNYWMHWVRQAPGQGLEWMGATYRGHSDTYYNQKFKGRVTITADKSTSTAYMELSSLRSEDTAVYYCARGAIYHGYDVLDNWGQGTLVTVSS
VL: DIQMTQSPSSLSASVGDRVTITCSASQDISNYLNWYQQKPGKAPKLLIYAASSLQSGVPSRFSGSGSGTDFTLTISSLQPEDFATYYCQQYRKLPWTFGQGTKLEIKR
Kd [1]: 2.14 nM
Kd [2]: 7.14 nM

B2: AB200-R1a-Fab_Vk1 (Fab, V domains shown)
VH: QVQLVQSGAEVKKPGSSVKVSCKASGGTFSNYWMHWVRQAPGQGLEWMGATYRGHSDTYYNQKFKGRVTITADKSTSTAYMELSSLRSEDTAVYYCARGAIYHGYDVLDNWGQGTLVTVSS
VL: DIQMTQSPSSLSASVGDRVTITCRASQDISSYLNWYQQKPGKAPKLLIYYTSNIHSGVPSRFSGSGSGTDFTLTISSLQPEDFATYYCQQYRKLPWTFGQGTKLEIKR
Kd [1]: 1.75 nM
Kd [2]: 6.37 nM

B3: AB200-R1a-Fab_Vk3 (Fab, V domains shown)
VH: QVQLVQSGAEVKKPGSSVKVSCKASGGTFSNYWMHWVRQAPGQGLEWMGATYRGHSDTYYNQKFKGRVTITADKSTSTAYMELSSLRSEDTAVYYCARGAIYHGYDVLDNWGQGTLVTVSS
VL: DIQMTQSPSSLSASVGDRVTITCSASQDISNYINWYQQKPGKAPKLLIYYTSNMHSGVPSRFSGSGSGTDFTLTISSLQPEDFATYYCQQYRKLPWSFGQGTKLEIKR
Kd [1]: 1.84 nM
Kd [2]: 6.21 nM

B4: AB200-R1a-Fab_Vk5 (Fab, V domains shown)
VH: QVQLVQSGAEVKKPGSSVKVSCKASGGTFSNYWMHWVRQAPGQGLEWMGATYRGHSDTYYNQKFKGRVTITADKSTSTAYMELSSLRSEDTAVYYCARGAIYHGYDVLDNWGQGTLVTVSS
VL: DIQMTQSPSSLSASVGDRVTITCSASQDISSYLNWYQQKPGKAPKLLIYYTSNLHSGVPSRFSGSGSGTDFTLTISSLQPEDFATYYCQQYRSTPWTFGQGTKLEIKR
Kd [1]: 7.83 nM
Kd [2]: 27.5 nM

B5: AB200-R1a-Fab_Vk6 (Fab, V domains shown)
VH: QVQLVQSGAEVKKPGSSVKVSCKASGGTFSNYWMHWVRQAPGQGLEWMGATYRGHSDTYYNQKFKGRVTITADKSTSTAYMELSSLRSEDTAVYYCARGAIYHGYDVLDNWGQGTLVTVSS
VL: DIQMTQSPSSLSASVGDRVTITCSATQDISNYLNWYQQKPGKAPKLLIYFTSNLQSGVPSRFSGSGSGTDFTLTISSLQPEDFATYYCQQYRKLPWTFGQGTKLEIKR
notes: also called AB200 kappa variant 6; AB200_Vk6_Fab
Kd [1]: 1.11 nM
Kd [2]: 4.26 nM

B6: AB200-R1a-Fab_VH50 (Fab, V domains shown)
VH: QVQLVQSGAEVKKPGSSVKVSCKASGGTFSNYWMHWVRQAPGQGLEWMGATFRGHSDTYYNQKFKSRVTITADKSTSTAYMELSSLRSEDTAVYYCARGAVYHGYDVLDNWGQGTLVTVSS
VL: DIQMTQSPSSLSASVGDRVTITCSATQDISNYLNWYQQKPGKAPKLLIYFTSNLQSGVPSRFSGSGSGTDFTLTISSLQPEDFATYYCQQYRKLPWTFGQGTKLEIKR
Kd [3]: 4.67 nM
Kd [4]: 9.65 nM

B7: AB200-R1a-Fab_VH60 (Fab, V domains shown)
VH: QVQLVQSGAEVKKPGSSVKVSCKASGGTFSSYWMHWVRQAPGQGLEWMGATYRIHSDSYYNQKFKGRVTITADKSTSTAYMELSSLRSEDTAVYYCARGAIYHGYDVLDNWGQGTLVTVSS
VL: DIQMTQSPSSLSASVGDRVTITCSATQDISNYLNWYQQKPGKAPKLLIYFTSNLQSGVPSRFSGSGSGTDFTLTISSLQPEDFATYYCQQYRKLPWTFGQGTKLEIKR
Kd [3]: 13.6 nM
Kd [4]: 17.8 nM

B8: AB200-R1a-Fab_Vk4 (Fab, V domains shown)
VH: QVQLVQSGAEVKKPGSSVKVSCKASGGTFSNYWMHWVRQAPGQGLEWMGATYRGHSDTYYNQKFKGRVTITADKSTSTAYMELSSLRSEDTAVYYCARGAIYHGYDVLDNWGQGTLVTVSS
VL: DIQMTQSPSSLSASVGDRVTITCTATQDITNYLNWYQQKPGKAPKLLIYYTSNLHSGVPSRFSGSGSGTDFTLTISSLQPEDFATYYCQQYRKLPWTFGQGTKLEIKR
Kd [1]: 2.2 nM
Kd [2]: 7.9 nM
